Test: yeast display, Sf9 membrane polyspecificity reagent, FACS + sequencing; frameworks hold sequencing errors
In short: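 Sorting gates, low and high (top ~1%), were placed on anti-HA fluorescence to track expression and on streptavidin fluorescence to track reagent binding. A clone's polyreactivity label is taken from the gate it came out of. The reagent was 10% biotinylated, detergent-solubilized Sf9 membrane, applied for 1 hour at 4 °C to galactose-induced yeast display cells.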

| Sequence | polyreactivity (PSR sort gate) |
| --- | --- |
| QVQLVESGGGLVQAGGSLRLSSAASGRIFRGNEMGWYRQAPGKEREFVAAISWGGGSTYYADSVKGRFTISRDNAKKTVYLQMNSLKPEDTAVYYCAAGSPYAYNYWGQGTQVTVSS | high polyreactivity |
| QVQLVESGGGLVQAGGSLRLSSAASGRIFSRNGMGWYRPAPGKERELVAAIRRYGGSTYYADSVKGRFTISRDNEKNTVNLQMNSLKAEDTAVFFCAAEPYGGGVKHSAYDYWGQGTQVTVSS | low polyreactivity |
| QVQLVESGGGLVQAGGSLRLSSAASGRIFTIYAMGWYRQAPGKERELVATISRRGGSTYYADSVKGRFTISRDNAKNTVYLQMNSLKPEDTAGYYCAADSVITWWAYDYWGQGTQVTVSS | high polyreactivity |
| QVQLVESGGGLVQAGGSLRLSSAASGRIFTVYAMGWYRQAPGKERELVAAITRGGGGTYYADSVKGRFTITRDYAKNTDYLQMNRLKPEDTAVYYCAATHNQVVARYSFNYWGQGTQVTVSS | high polyreactivity |
| QVQLVESGGGLVQAGGSLRLSSAASGRIFYGYAMGWSRQAPGKERELVAAITRSSSTYFADSVKGRFTISRDNAKNTVYLQMNSLKPEDTAVYDCAVYRLSWIGSVQYEYWGQGTQVTVSS | high polyreactivity |
| QVQLVESGGGLVQAGGSLRLSSAASGRIFYQYAMGWYRQAPGKERELVASISRSGTRTYYADSVKGRFTISRDNAKNTVYLQMISLKPEDTAVYYCAARGRASVERRGGYYYWGQGTQVTVSS | high polyreactivity |
| QVQLVESGGGLVQAGGSLRLSSAASGRIIKIYAMGWYRQAPGKERELVAAISGRGGSTYYADSVKGRFTISRDNAKYTVYLQMNSLKPEDTAVYYCAAVGYGFSAYSTYDYWGQGTQVTVSS | high polyreactivity |
| QVQLVESGGGLVQAGGSLRLSSAASGRLFSEYAMGWYRQAPGKERELVAAISRRGGRTYYADSVKGRFTISRDNAKNTVYVQMNSLIPEDTAVYYCAADHGDPGGYDYWGQGSQVTVSS | high polyreactivity |
| QVQLVESGGGLVQAGGSLRLSSAASGRNFYANAMGWSRQAPGKERYFVAAISWGGGSTNYADSVKGRFTISRDNAKNTGYLQKNSQKPEDTAVYYCATGFYYYLTKTIPYEYEYWGLGTQVTVSS | low polyreactivity |
| QVQLVESGGGLVQAGGSLRLSSAASGRTFDFYAMGWYRQAPGKERELVAAITGSDTSTYYADSVKGRFTISRDNAKNTVYLQMNSLKPEDTAVYYCAADGQWAYTVDPYVIYYRLDYWGQGTQVTVSS | low polyreactivity |
| QVQLVESGGGLVQAGGSLRLSSAASGRTFDRNAMGWYRQAPGKERELVAGITRSGDSTYADSVKGRFTISRDNAKITVYLQMNSLKPEDTAVYYCNKEGTVGGTRGYWGQGTQVTVSS | low polyreactivity |
| QVQLVESGGGLVQAGGSLRLSSAASGRTFGVNAMGWYRQAPGKERELVASISWGGGSTYYADSVKGRFTISRDNAKNTVYLQMNSLKPEDTAVYFCNRAYVRYVPMNYWGQGTQVTVSS | high polyreactivity |
| QVQLVESGGGLVQAGGSLRLSSAASGRTFQRNVMGWYRQAPGKDRELVAAISSSGGGTYYADSVKGRFTISRDNAKNTVYLQMNSLKPEDTAVYYCAARYRSYGGYGYYYWGLGTQVTVSS | high polyreactivity |
| QVQLVESGGGLVQAGGSLRLSSAASGRTFSGYAMGWYRQAPGKERELVASISGSGSSTYYADSVKGRFTISRDNAMNTVYLQMNSLKPEDTAVYYCAKRSFYYRIQTGYNYWGQGTQVTVSS | high polyreactivity |
| QVQLVESGGGLVQAGGSLRLSSAASGRTFVINAMGWYRQAPGKERELVAAITWGGGSTYYADSVKGRFTISRDNAKNTVYLQMNSLKQEDSAVYYCATSYSVQYGGSGYYWGQGTQVTVSS | low polyreactivity |
| QVQLVESGGGLVQAGGSLRLSSAASGRTFYYNAMGWYRQAPGKEREFVAVMTSSGGSTYYADSVKGRFTISRDNAKNTVYLQMNSLKPEDTAVYYSAASNTEQQLVVLIEVYYTRYDYWGQGTQETVSS | low polyreactivity |
| QVQLVESGGGLVQAGGSLRLSSAASGRTLSKNAMGWYRQAPGKERELVATISSVGRTNYADSVKGRFTISRDNAKNTVYLQMNSLKPEDTAVYYCAATVRGKRSTYDYWGQGTQVTVSS | high polyreactivity |
| QVQLVESGGGLVQAGGSLRLSSAASGRTSLAYAMGWYRQAPGKERELVAVITSGGNTNYADSVKGRFTISRDNAKNTVYLQMNSLKPEDTAVYYCNKKKRWQWYSESVLDYLGFYSWGQGTQVTVSS | low polyreactivity |
| QVQLVESGGGLVQAGGSLRLSSAASGSIFASYAMGWYRQAPGKERELVAAISRRAVRTYYADSVKGRFTISRDNAKNTVYLQMNSLKPEDSAVYYCNAASSLPGYDYWGQGTQLTVSS | high polyreactivity |
| QVQLVESGGGLVQAGGSLRLSSAASGSIFDKNAMGWYRQAPGKERELVAAIRRTSTTYYADSVKGRFTISRDNAKNTVFLKMNSLKPEDTAVYYCAATYGSGYWYPRYYYWGQGTEVTVSS | high polyreactivity |

| Sequence | polyreactivity (PSR sort gate) |
| --- | --- |
| QVQLVESGGGLVQAGGSLRLSSAASGSIFELNAMGWYRQAPGKERELVASISFRGTSTYYADSVKGRFTISRDYAKNTVYLKMNSLKPDDNAVYYCAADTTFPFSYWGQGTQVTVSS | low polyreactivity |
| QVQLVESGGGLVQAGGSLRLSSAASGSIFGDYVMGWSRQAPGKERELVAAINRGGSTYYADSVKGRFTISRDNAKNTVYLHMNSLKPEDTAVYYCAAGYPSWYYGDPYDSWGQGTQVTVSS | low polyreactivity |
| QVQLVESGGGLVQAGGSLRLSSAASGSIFPKNTMGWYRQAPGKERELVAAISKSGGSTYYADSVKGRFTISRDNAKNTVYLQMNSLKPEDTAVYYCAAALGLRSTSWGRRGGGGDYWGQGTQVTVSS | high polyreactivity |
| QVQLVESGGGLVQAGGSLRLSSAASGSIFRRYALGWYRQEPGKESELVAAISRSAGSTYYADSVKGRFTISRDNAKNTVYLQMNSLKPEETAVYYCKTDPSRSPGDVVSASVIKRDYWGQGTQVTVSS | low polyreactivity |
| QVQLVESGGGLVQAGGSLRLSSAASGSIFRWYAMGWYRQAPGKERELVAAISRGGRTNYADSVKGRFTISRDNAKNTVYLQMNSLKPEDTAVYYCNKVLRNYSSTGVISVLTDYDYWGQGTQVTVSS | high polyreactivity |
| QVQLVESGGGLVQAGGSLRLSSAASGSIFSRYAMGWYRQAPGKEREMVAALNGRGSRTYYADSVKGRFTISRDNSKNTVYLLMNSLKPEDTAVYYCAAESYTAWELDYWGQGTQVTVSS | high polyreactivity |
| QVQLVESGGGLVQAGGSLRLSSAASGSIFYYNAMGWYRQAPGKEREFVAAISARGGSTYYADSVKGRFTISRDNAKNTVYLQMNSLKPEDTAVYYCAASWGLDTYSDSTYWGGYYYSGQGTQVTVSS | low polyreactivity |
| QVQLVESGGGLVQAGGSLRLSSAASGSILYFNAMGWYRQAPGKERELVAAISRSGGSTYYADSVKGRFTISRDNAKNTVYLQMNSLKPEDTAVYYCAAVYIRCRGNRFDYWGQGTQVTVSS | high polyreactivity |
| QVQLVESGGGLVQAGGSLRLSSAASGSNFPPNAMGWYRQAPGKEREFVASITSSGGITNYADSVKGRFTISRDNAKNTVYLQMNSLKPEDTAVYYCAAKYYGGTRFRPYGYWGQGTQVTVSS | high polyreactivity |
| QVQLVESGGGLVQAGGSLRLSSAASGSSFYRYAMGSYRQAPGKERELVATITRSGGSTYYADSVKGRFTISRDNAKNTVYLQMNSLKPEDTAVYYCAARGWYKSDYWGQGTQVTVSS | low polyreactivity |
| QVQLVESGGGLVQAGGSLRLSSAASGSTFAEYAMGWYRQAPGKERELVAAIRWSGGSTSYADSVKGRFTISRDNAKNTVYLQMNSLKPEDTAVYYCAAERFWYDGEVKLYVLSYYWGQGTQVTVSS | low polyreactivity |
| QVQLVESGGGLVQAGGSLRLSSAASGSTFAYYAMGWYRQEPAKEGELVASISWRGGSTYYADSVKGRFTISRDNAKNTVYLQMNSLKPEDTAVYYCAARSTYRPWLLSAYGYWGQGTQVTVSS | low polyreactivity |
| QVQLVESGGGLVQAGGSLRLSSAASGSTFGYYAMGWYRQPPGKERELVAAISSSAGTTYYADSVKGCFTISRDNAKNTVYLQMNSLKPEDTAVYYCAADAVSGREYWGQGTQVTVST | low polyreactivity |
| QVQLVESGGGLVQAGGSLRLSSAASGSTFLYVMGWYRQAPGKERELVAAISESGGSTYYADSVKGRFTISRDNAKNTVYLQMNSLKPEDTAVYYCAADLPTGLQYRYYRVDYWGHGTQVTVSS | low polyreactivity |
| QVQLVESGGGLVQAGGSLRLSSAASGSTFPYVKGWYRQAPGKESEFVAAISQRTGSTYYADSVKGRFTISRDNAKNTVYLQMNSLKPEDTAVYYCAKPGYLRPSRYDYWGQGTQVTVSS | high polyreactivity |
| QVQLVESGGGLVQAGGSLRLSSAASGSTFQDYDMRRSRQAPGKERELVAVISGSGGCTYYADSVKGRFTISRDNAKNTVYLQMNSLKPEDTAVYYCATDIKDGRPGDGVYDYGYWGQGTQVTVSS | low polyreactivity |
| QVQLVESGGGLVQAGGSLRLSSAASGSTFTPYVMGWYRQAPGKERELVAAISKRGGSTYYADSVKGRFTISRDNANNTVYLQMNSLKPEDTAVYYCAAVQPAWGNGYWGQGTQVTVSS | high polyreactivity |
| QVQLVESGGGLVQAGGSLRLSSAASGSTFVQNAIGWYRQAPGKERELVAAISRTGGSTYSAHSVKGRFTIYRDNAKNTVYLEMNSLKPEDTAVYYFAKRPPHYSWPTFIEFGSWGLGTQVTVSS | high polyreactivity |
| QVQLVESGGGLVQAGGSLRLSSAASGSTIRFNAMGWYRQAPGKERELVAVIRWRGGTTYYADSVKGRFTISRDNAKNTVYLQINSLKPEDSAVYYCNADYWFSYTWHGSYTVGYWGQGTQVTVSS | high polyreactivity |
| QVQLVESGGGLVQAGGSLRLSSAATGSIFLSNMGWYRQAPGKERELVAAIYRNGGSTYYADSVKGRFTISRDNAKNTVYLQMNSLKPEDTAVYYCAVQRYWGQGTQVTVSS | high polyreactivity |

Reference: the nanobody polyreactivity screen of Harvey et al. (2022)
